This is an account of results in US20180221438A1, “MODULATING URACIL-DNA GLYCOSYLASE AND USES THEREOF” (Adaerata Limited Partnership, priority 2015, published 2018).

In assay [1] the test system is DLBCL cells. Nature of the assay: Metaphases with STL in DLBCL lines. The class given is cell-based, human. As to conditions: DLBCL lines expressing GFP or Ugi, and AID or shAID. How it is done:
For metaphase analysis cells were incubated with 50 ng/ml colcemide in cell culture media for 3 hours, harvested by trypsinization, incubated for 10 min at RT in 75 mM KCl, and fixed in freshly prepared methanol:glacial acetic acid (3:1 v/v). Cells were stored at 4° C. and when needed dropped onto wet slides and air-dried. For FISH analysis of the metaphases the cells were pre-treated with 0.05% w/v pepsin in 10 mM HCl during 10 minutes at 37° C. After washes with 1X PBS, cells were fixed with 1% formaldehyde in 1X PBS during 10 minutes at RT, washed again with 1X PBS and dehydrated with ethanol series (70-90-100%, 2 min each at RT) and air-dried ON. Then, cells were denatured with hybridization solution (70% deionized formamide; 2.5% 50× Denhardt solution; 10 mM Tris pH 7.5; 1.5 mM MgCl2) containing Alexa488-conjugated PNA probe (Alexa488-OO-(CCCTAA)3) 2 min at 80° C. on a heat block. After 4 hours incubation at RT in the dark, the samples were washed twice with wash solution (70% deionized formamide and 10 mM Tris-HCl [pH 7.2]) at RT and then twice with PBS. For DAPI staining of DNA, slides with metaphase spreads were incubated 10 min in 0.5 ? g/ml 4′, 6-diamino-2-phenylindole (DAPI) (Sigma) in PBS, washed with PBS for 2 min, and mounted in SlowFade™ Gold antifade mounting reagent (Life Technologies). Finally, the samples were analyzed as described above. […]

Assay [2] deals with CH12F3 cells. In words: Terminal restriction fragment (TRF) analysis of telomeric DNA in CH12F3 cells. As to conditions: CH12F3 Ugi cells. The format is cell-based, mouse.
In assay [3] the test system is CH12F3 cells. Nature of the assay: Anaphase bridges by DAPI staining in CH12F3 cells expressing E6 and E7. As to conditions: CH12F3 Ugi with E6 and E7, vs CH12F3 Ugi shAID and control GFP cells. The format is cell-based, mouse. The source says:
Anaphase cells were visualized by DAPI staining of cells fixed with 2% paraformaldehyde in 1X PBS and attached to slides pre-treated with poly-lysine and analyzed as described previously ^33.

Assay [4] has as its system CH12F3 cells. Nature of the assay: ChIP for DNA damage marker at the telomeres. The class given is cell-based, mouse. As to conditions: CH12F3 Ugi vs CH12F3 GFP. The procedure: ChIPs to evaluate interaction with the telomeric chromatin or the Ig locus were performed as described previously ^39,61. Briefly, cells were cross-linked with 1% formaldehyde for 20 min at room temperature and reaction was stopped by addition of glycine to 125 mM final concentration. Cells were washed twice with cold PBS, harvested and kept at −80° C. O.N. Samples were resuspended in RIPA buffer (150 mM NaCl, 1% [v/v] Igepal CA-630, 0.5% [w/v] Sodium Deoxycholate, 0.1% [w/v] SDS, 50 mM Tris-HCl at pH 8, 5 mM EDTA, protease and phosphatase inhibitors) and sonicated to generate DNA fragments <500 bp using a Bioruptor™ Next Gen (Diagenode).
In order to increase the sensitivity of the ChIP assays and evaluate the presence of AID at the telomeres we performed the immunoprecipitations with fractions enriched in crosslinked chromatin. For this goal B cells fixed with 1% formaldehyde as described above were resuspended in RIPA buffer, sonicated during 90 seconds using a Bioruptor™ Next Gen (Diagenode), and the lysates were then spun down briefly (2000g, for 5 min at 4 C) to remove debris. […] Samples were then clarified by centrifugation at 20,000 RPM (4° C.) and their protein content was measured using the BCA method (Biorad). […]

The test system of assay [5] is human DLBCL cell lines. Nature of the assay: Growth curves of human DLBCL cell lines. The class given is cell-based. The following applies: DLBCL AID+ (Ocy-Ly3, Ocy-Ly10) and AID− (Ocy-Ly7, Ocy-Ly8) lines expressing Ugi. How it is done:
Stable shRNA-mediated knockdowns were generated in CH12F3-2 cells following protocols from the RNAi Consortium (TRC). Transfected cells were selected with puromycin at 1 μg/ml final concentration. For double knockdowns, CH12F3-2 cells were first transfected with a pLKO.1 neomycin version of the shRNA (shAID or shGFP) and selected, then transduced with the second shRNA and selected again with puromycin before analysis. CH12F3 Ugi cells transduced with pMIG-Ugi-IRES-GFP were generated as described ^39, and human lymphoma Ugi cells were generated by retroviral delivery using a pLPC-PURO system (pLPC-Ugi-PURO) and transduced cells were selected with 1 ug/m1 of puromycin. The Ugi protein from bacteriophage PBS2 and its ability to inhibit eukaryotic UNG have been described ^69,31.
The inventors therefore stratified human DLBCL cell lines on the basis of their AID protein levels into high (DLBCL AID^+) (Ocy-Ly3 and Ocy-Ly10 in FIG. 13A) or low expressing (DLBCL AID^−) lines (Ocy-Ly7 and Ocy-Ly8 in FIG. 13A) and established derivatives expressing Ugi for each one.

B1: Ugi: Uracil Glycosylase Inhibitor of Bacillus subtilis bacteriophage PBS1/PBS2, small protein (9.5 kDa), SEQ ID NO: 29; expressed in cells by retroviral delivery (protein)
chain: MTNLSDIIEKETGKQLVIQESILMLPEEVEEVIGNKPESDILVHTAYDESTDENVMLLTSDAPEYKPWALVIQDSNGENKIKML
modifications: bacillus subtilis
notes: expressed in cells by retroviral delivery
As to B1, in assay [1], the “number of metaphases with STL” value is “significant increase in the number of metaphases with STL only when DLBCL cells expressed AID and Ugi but not with Ugi alone”. In addition, the “intra-telomeric G-rich single-stranded DNA” value in assay [2] (DNA treated with exonuclease before TRF analysis) is on record as “MSH2-dependent increase in intra-telomeric G-rich single-stranded DNA”. Further, the “telomere G-rich 3′ overhang signal” value in assay [2] (terminal restriction fragment analysis) is listed as “normal telomere G-rich 3′ overhang signal”. Besides, in assay [3], the anaphase bridges entry was “significantly accumulated anaphase bridges”. Further, in assay [4], the “phospho-ser129-H2AX at the telomeres” value is “AID-dependent accumulation of phospho-ser129-H2AX”. Besides, in assay [5], the “growth of DLBCL cells” value is recorded as “only impaired the growth of DLBCL AID+ cells”.
